Results on 64 variants are retold here after the RNAGym collection of RNA variant scans (doi:10.7554/elife.80360).

The labels stand for the following.
B1: HDV Ribozyme (parent)
chain: GGCCGGCAUGGUCCCAGCCUCCUCGCUGGCGCCGGCUGGGCAACAUUCCGAGGGGACCGUCCCCUCGGUAAUGGCGAAUGGGACCCA

In the data set the parent is B1. Put plainly: self-cleavage, relative activity (ratio to wild type); higher = more cleavage; co-transcriptional.
As to GGCCGGCAUGGUCCCAGCCUCCUCGCUGGCCCCGGCUGGGCAACAUUCCGAGGGGACCGUCCCCUCGGGAAUGGCGAAUGGGACCCA, the self-cleavage was determined as 0.394.

For the variant GGCCGGGAUGGUCCCAGCCUCCUCGCUGGCGCCGGCUGGGCAACAUUCCGAGGGGACCGUCCCCUCGGUAAUGGCGAAUGGGACACA, the self-cleavage came out at 0.302. With GGCCAGCAUGGUCCCAGCCUCCUCGCUGGCGCCGGCUGGGCAACAUUCCGAGGGGACCCUCCCCUCGGUAAUGGCGAAUGGGACCCA, the self-cleavage was 0.219. With GGCCGGCAUGGUCCCAGCCUCCUCGCUGGCGCCGGCUGGGCAACAUUCCGAGGGGACCGUCCCCUCGGUAAUGGGGAAUGUGACCCA, the self-cleavage is 0.133. In the case of GGCCGGCAUGGUCCCAGCCUCCUCGCUGGCGCCGGCUGGGCAUCAUUCCGACGGGACCGUCCCCUCGGUAAUGGCGAAUGGGACCCA it was 0.743; in that of GGCCGGCAUGGUCCCAGCCUCCUCGCUGGCGCCUGCUGGGCAACAUUCCGAGGGGACCGUCCCCUCGGUAAUGUCGAAUGGGACCCA, 0.133. Consider GGCCGGCAUGGUCCCAGCCUCCUCGCUGGCGCCGGCUGGGCACCAUUCCGAGGGGACCGUCCCCUCUGUAAUGGCGAAUGGGACCCA, for which the self-cleavage came out at 0.299. As to GGCCGGCAUGGCCCCAGCCUCCUCGCUGGCGCCGGCUGGGUAACAUUCCGAGGGGACCGUCCCCUCGGUAAUGGCGAAUGGGACCCA, the self-cleavage came out at 0.415. Under GGCCGGCAUGGUCCCAGCCUCUUCGCUGGCACCGGCUGGGCAACAUUCCGAGGGGACCGUCCCCUCGGUAAUGGCGAAUGGGACCCA stands 0.22; under GGCCGCCAUGGUCCCAGCCUCCUCGCUGGCGCCGUCUGGGCAACAUUCCGAGGGGACCGUCCCCUCGGUAAUGGCGAAUGGGACCCA, 0.256; under GGCCGGCAUGGUCCCAGCCUCCUCGCUGGCGCCGUCUGGGCAACAUUCCGAGGGGACCGUCCCCUCGGUAAUGGCGAAUGGGUCCCA, 0.145.

In the case of AGCCGGCAUGGUCCCAGCCUCCUCGCUGGCGCCGGCUGGGCAACAUUCCGAGGGGACCGUCCCCUCGGUAAUGGCGAAUGGGACCGA, the self-cleavage came out at 0.185.

For GGCCGGCAUGGUCUCAGCCUCCUCGCUGGCGCCGGCUGGGGAACAUUCCGAGGGGACCGUCCCCUCGGUAAUGGCGAAUGGGACCCA, the self-cleavage was determined as 1.06. GGCCGGGAUGGUCCCAGCCUCUUCGCUGGCGCCGGCUGGGCAACAUUCCGAGGGGACCGUCCCCUCGGUAAUGGCGAAUGGGACCCA: the self-cleavage was determined as 0.0898. On to GGCCGGCAUGGUCCCAGCCUCCUCGCUGGCGCCGGCUGGGCAACAUUCCGAGGGGACCGUCCCCUCGGCAACGGCGAAUGGGACCCA, for which the self-cleavage turned out to be 0.9. In the case of GGCCGGCAUGGUCCCAGCCUCCUCGCUGGCGCCGGCUGGGCAACAUUCCGAGGGGACCGUCCCCUCGGUAAUGGCGAAUGGGACGCC it was 0.849. On to GGCCGGCAUGGUCCCAGCCUCCUCGCUGGAGCCGGCUGGGCAACAUUCCGAGGGGACCGUCCCCACGGUAAUGGCGAAUGGGACCCA, for which the self-cleavage amounted to 0.341. In the case of GGCCGGCCUGGUCCCAGCCUCCUCGCUGGCGCCGGCUGGGCAACAUUCCGAGGGGACCGUCCCCUCGCUAAUGGCGAAUGGGACCCA it was 0.604; in that of CGCCGGCAUGGUCCCAGCCUCCUCGCUGGCGCCGGCUGGGCAACAUUCCGAGGGGACCGUCCCCUCGGUAAUGGCGAAUGGGCCCCA, 0.185. With GGCCGGCAUGGUCCCAGCCUCCUCGCUGGCGCCGGCUGGGCGAAAUUCCGAGGGGACCGUCCCCUCGGUAAUGGCGAAUGGGACCCA, the self-cleavage came out at 0.536. As for GGCCGGCAUGGUCCCAGCCUCCUCGCUGGCGCCGGCAGGACAACAUUCCGAGGGGACCGUCCCCUCGGUAAUGGCGAAUGGGACCCA, the self-cleavage came to 0.305.

As for GGCCGGCAUGGUCCCAGCCUCCUAGCUGGCGCCGGCUGGGCAACAUUCCGAGGGGACCGUCCCCUCGGUAAUGGCGAAUGAGACCCA, the self-cleavage was found to be 0.0852. In the case of GGCCGGCAUGGUCCCAGCCUCCUCGCUGCCGCCGGCUGGGCAAUAUUCCGAGGGGACCGUCCCCUCGGUAAUGGCGAAUGGGACCCA it was 0. On to GGCCGGCAUGGUCCCAGCCUCCUUGCUGGCGCCGGCUGGGCAACAUUCCGAGGGGACCGUCCACUCGGUAAUGGCGAAUGGGACCCA, for which the self-cleavage turned out to be 0.753.

With GCCCGGCAUGGUCCCAGCCUCCUCGCUGGCGCCGGCUGGGCAACAUUCCGAGGGGACCGUCCCCUCGGUAAUGGCGAAUGGCACCCA, the self-cleavage was 0.0272. In the case of CGCCGGAAUGGUCCCAGCCUCCUCGCUGGCGCCGGCUGGGCAACAUUCCGAGGGGACCGUCCCCUCGGUAAUGGCGAAUGGGACCCA it was 0.0405; in that of GGCCGGCAUGGUCACAGCCUCCUCGCUGGCGCCGGCUGGGCAACAUUCCGAGGGGACCGUCCGCUCGGUAAUGGCGAAUGGGACCCA, 0.935; in that of GGCCGGCAUGGUCCCAGCCUCCUCGCUGGCGCCCGCUGGGCAACAUUCCGAGGGUACCGUCCCCUCGGUAAUGGCGAAUGGGACCCA, 0.113. Consider GGCCGGCAUGGUCCCAGCCUCCUCGCUGGCGCCGGCUGGGCAACAUUCAGAGGGGACCGUCCCCUCGGUAAUGGCGAAUGGGAACCA, for which the self-cleavage turned out to be 1.05.

For GGCCGGCAUGGUCCCAGCCUCCUCGCUGGCGUCGGCUGGGCAACAUUCCGAGGGGACCGUCCCAUCGGUAAUGGCGAAUGGGACCCA, the self-cleavage stood at 0.831. For the variant GGCCAGCAUGGUCCCAGCCUCCUCGCUGGCGCCGGCUGGGCAACAUUCCGAGGGGACCGUCCCCUCGGUAAUGCCGAAUGGGACCCA, the self-cleavage was 0.0923.

As for GGCCGGCAUGGUCCCAGCCUCCUCGCUGGCGCCGGCUGGACAACAUUCCGAGGGGACCGUCCCCUCGGUAAUGUCGAAUGGGACCCA, the self-cleavage turned out to be 0.732. Take GGCCAGCAUGGUCCCAGCCUCCUCGCUGGCGCCGGCUGGGCAACAUUCCGAGGGGACCGUCCCCUCGGUAAUGGCGAAUGGCACCCA: the self-cleavage was determined as 0. Consider GGCCGGCAUGGUCCCAGCCUCCUCGCUGGCGCCGGUUGGGCAACAUUCGGAGGGGACCGUCCCCUCGGUAAUGGCGAAUGGGACCCA, for which the self-cleavage is 0.607. In the case of GGCAGGCAUGGUCCCAGCCUCCUCGCUGGCGCCGGCUGGGCAACAUUCCGAGGGGACAGUCCCCUCGGUAAUGGCGAAUGGGACCCA, the self-cleavage came out at 0.348.

With GGCCGGCAUGGUCCCAGCCUCCUCGCUGGCGCCGGCUGGGUAACAUUCCGAGGGGACCGUCCCCUCGGUAAUGGCGAAUGGGACGCA, the self-cleavage is 0.911. Consider GGCCGGCAUGGUCGCAGCCUCCUCGCUGGCGCCGCCUGGGCAACAUUCCGAGGGGACCGUCCCCUCGGUAAUGGCGAAUGGGACCCA, for which the self-cleavage was determined as 0.

On to GGCCGGCAUGGUCCGAGCCUCCACGCUGGCGCCGGCUGGGCAACAUUCCGAGGGGACCGUCCCCUCGGUAAUGGCGAAUGGGACCCA, for which the self-cleavage amounted to 0.68.

Consider GGCCGGCGUGGUCCCAGCCUCCUCGCUGGCGCCGGCUGGGCAACAUUCAGAGGGGACCGUCCCCUCGGUAAUGGCGAAUGGGACCCA, for which the self-cleavage was determined as 0.939. Consider GGCCGGCAUGGUCCGAGCCUCGUCGCUGGCGCCGGCUGGGCAACAUUCCGAGGGGACCGUCCCCUCGGUAAUGGCGAAUGGGACCCA, for which the self-cleavage amounted to 0.119. Consider GGCCGGCAUCGUCCCAGCCUCCUCGCUGGCGCCGGCUGGGCAACAUUCCGAGGGGACCGUCCCCUCGGUAAUGGCGAAUGGGACCCC, for which the self-cleavage is 1.17. On to GGCCGGCAUGGUCCCAGCCUCCCCGCUGGCGCCGGCUGGGCAACAUUCCGAGGGGACCGUCCCCUCGGAAAUGGCGAAUGGGACCCA, for which the self-cleavage is 0.8.

As for GGCCGGCCUGGUCCCAGCCUCCUCGCUGGCGCCGGCUGGGCAACAUUCCGAGGGGAGCGUCCCCUCGGUAAUGGCGAAUGGGACCCA, the self-cleavage came to 0.87. As for GGCCGGCAUGGUCCCAGCCUCCUCGCUGGCGCCGGCUGGGCAACAUUCCGAGGGGACCGUCCCCUCGGUAAUGGCGGAUGGGACCGA, the self-cleavage is 0.886.

Regarding GGCCCGCAUGGGCCCAGCCUCCUCGCUGGCGCCGGCUGGGCAACAUUCCGAGGGGACCGUCCCCUCGGUAAUGGCGAAUGGGACCCA, the self-cleavage was found to be 0.0831. On to GGCCGGCUUGGUCCCAGCCUCCUCGCUGGCGCCGGCUGGGCAACAUUCCGAGGGGACCGUCCCCUCGGUAAUGGCGAAUUGGACCCA, for which the self-cleavage amounted to 0.0715. Consider GGCCGGCAUGGUCCCAGCCUCCUCGCUGGCGCCGGCUGGGCAACAUUCCGAGGGAACCGUCCCCUCGGUAAUGGCUAAUGGGACCCA, for which the self-cleavage is 0.918.

As for GGCCGGCAUGGUCCCAGCCUUCUCGCUGGCGCCGGCUGGGCAACAUUCCGAGGGGACCGUCCCCUCGGUAAUGGCGAAUGGGACGCA, the self-cleavage came to 0.358.

As to GGCCGGCAUGGUCCCAGCCUCCUCGCUGGCGCCGGCUGGGCAACCUUCCGGGGGGACCGUCCCCUCGGUAAUGGCGAAUGGGACCCA, the self-cleavage came to 0.587.

As to GGCCGGGAUGGUCCCAGCCUCCUCACUGGCGCCGGCUGGGCAACAUUCCGAGGGGACCGUCCCCUCGGUAAUGGCGAAUGGGACCCA, the self-cleavage turned out to be 0.104. For the variant GGCCGGCAUGGUCCCAGCCUCCUCGCUGGCGCCGGUUGGGCAACAUUCCAAGGGGACCGUCCCCUCGGUAAUGGCGAAUGGGACCCA, the self-cleavage is 0.673. Regarding GGCCGGCAUGGUCCCAGCCUCCUCGCUGGCGCCGGCUGGGCAACAUGCCGAGGGGACCGUCCCCUAGGUAAUGGCGAAUGGGACCCA, the self-cleavage is 0.969. On to GGCCGGGAUGGUCCCAGCCUCCUCGCUGGCGCCGGCGGGGCAACAUUCCGAGGGGACCGUCCCCUCGGUAAUGGCGAAUGGGACCCA, for which the self-cleavage amounted to 0. On to GGCCGGCAUGGUCCCAGCCUCCUCGCUGGCGCCGGCUGGGCAACAUUGCGAGGGGACCGUCCCCUCGGUAAUGGCGAAUGGGACCCG, for which the self-cleavage is 0.975. Turning to GGCCGGCAUGGUCCCAGCCUCCUCGCUGGCGCCGGCUGGGCAACAUUCCGAGGGGACCGUCCCCUCGGUAAGGGCGACUGGGACCCA, the self-cleavage came out at 0.0831.

Consider GGCCUGCAUGGUCCCAGCCUCCUCGCUGGCGCCGGCUGGGCAACAUUCCGAGGGGACCGUCCCCUCGGUAAUCGCGAAUGGGACCCA, for which the self-cleavage is 0.249. Turning to GGCCGACAUGGUCCCAGCCGCCUCGCUGGCGCCGGCUGGGCAACAUUCCGAGGGGACCGUCCCCUCGGUAAUGGCGAAUGGGACCCA, the self-cleavage came out at 0.262. In the case of GGCCGCCAUGGUCCCAGCCUCCUCGCUGGCGCCGGCUGGGCAUCAUUCCGAGGGGACCGUCCCCUCGGUAAUGGCGAAUGGGACCCA it was 0.0594; in that of GGCCGGCAUGGUCCCAGCCUCCUCGCUGCCGCCGGCUGGGCAACAUUCCGAGGGGACCGUCCCAUCGGUAAUGGCGAAUGGGACCCA, 0.0755; in that of GGCCGGCGUGGUCCCAGCCUCCUCGCUGGCGCCGGCUGGGCAACAUUCCGAGGGGACCGUCCCCUCGGUAAUUGCGAAUGGGACCCA, 0.148. Under GGCCGGCAUGGUCCCAGGCUCCUCGCUGGCGCCGGCUGGGCAACAUUCCGAGGGGACCGUCCCCACGGUAAUGGCGAAUGGGACCCA stands 0.138. As for GCCCGGCAUGGUCCCAGCCUCCUCGCUGGCGCCGGCUGGGCAACAUUCCGAGGGGACCGUCCCCUCGGUAAUGGUGAAUGGGACCCA, the self-cleavage worked out at 0.0594.

With GGCCGGCAUGGUCCCAGCCUCCUCGCUGGCGCCGGCUGGGCAAUAUUCCGAGGGGGCCGUCCCCUCGGUAAUGGCGAAUGGGACCCA, the self-cleavage was 0.939. In the case of GGCCGGCAUGGUCCCAGCCUCCUCGCUGGCGCCGGCUGGGCAACAUUCCGAGGGGACCGUCCCCUCGCUAAUGGCGAAUGGGACACA, the self-cleavage was 1.17.
